Reference: PMC3050627

B1: P31 (PRDIII-PRDI) (dsDNA)
DNA 1: GAAAACTGAAAGGGAGAAGTGAAAGTG
DNA 2: CACTTTCACTTCTCCCTTTCAGTTTTC
B2: MARE (dsDNA)
DNA 1: CATTTCTGCTGACTCAGCAACTTTA
DNA 2: TAAAGTTGCTGAGTCAGCAGAAATG

Target: His-MAFB (UniProt Q9Y5Q3 1-323)
Experiment: EMSA

His-MAFB, sequence (Q9Y5Q3 whole entry): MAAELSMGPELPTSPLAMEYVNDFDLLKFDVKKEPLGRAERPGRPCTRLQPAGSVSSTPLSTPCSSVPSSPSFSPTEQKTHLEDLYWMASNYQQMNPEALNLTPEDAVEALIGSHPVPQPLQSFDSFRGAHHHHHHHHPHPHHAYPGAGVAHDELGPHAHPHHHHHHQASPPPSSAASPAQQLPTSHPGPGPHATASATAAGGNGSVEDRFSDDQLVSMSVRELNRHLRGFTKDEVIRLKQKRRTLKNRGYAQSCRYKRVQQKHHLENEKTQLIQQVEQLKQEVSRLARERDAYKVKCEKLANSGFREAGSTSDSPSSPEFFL

Binder	binding result
B1	no binding
B2	binds
